# According to the supplement of paper PMC9112550, “Optimization of the antimicrobial peptide Bac7 by deep mutational scanning” (BMC Biology, 2022):
# Test system: Escherichia coli TOP10
# Experiment: shrunken log2 fold change of peptide-encoding DNA abundance (4.5 h post-induction vs induction); higher = less antimicrobial activity (less host growth inhibition)
# Settings: time post-induction: 4.5 h; library: site-saturation at positions 5, 18, 19, 20
# 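Note: peptides expressed intracellularly from a pBAD plasmid library in pooled LB shake-flask culture, induced with 0.3% L-arabinose, DNA abundance read by NGS, three biological replicates, DESeq2 with apeglm shrinkage.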
row,Sequence,shrunken log2 fold change
1,RRIRPRPPRLPRPRPRPEMYPRP,-0.269
2,RRIRDRPPRLPRPRPRPVIHPRP,0.0491
3,RRIRERPPRLPRPRPRPTTLPRP,-0.325
4,RRIRCRPPRLPRPRPRPKGCPRP,0.00419
5,RRIRWRPPRLPRPRPRPSFKPRP,-0.226
6,RRIRIRPPRLPRPRPRPPRYPRP,-0.217
7,RRIRGRPPRLPRPRPRPLDVPRP,0.326
8,RRIRSRPPRLPRPRPRPHMHPRP,-0.202
9,RRIRERPPRLPRPRPRPHQMPRP,-0.0399
10,RRIRLRPPRLPRPRPRPLEAPRP,0.41
11,RRIRMRPPRLPRPRPRPCMGPRP,-0.28
12,RRIRGRPPRLPRPRPRPNMNPRP,0.255
13,RRIRLRPPRLPRPRPRPATVPRP,-0.138
14,RRIRARPPRLPRPRPRPVEEPRP,1.03
15,RRIRKRPPRLPRPRPRPKTEPRP,-0.0466
16,RRIRDRPPRLPRPRPRPMIIPRP,0.248
17,RRIRIRPPRLPRPRPRPWFKPRP,-1.74
18,RRIRNRPPRLPRPRPRPTSQPRP,0.187
19,RRIRHRPPRLPRPRPRPWMCPRP,-1.49
20,RRIRARPPRLPRPRPRPYAMPRP,0.0392
21,RRIRVRPPRLPRPRPRPITAPRP,-0.272
22,RRIRIRPPRLPRPRPRPRDYPRP,-0.14
23,RRIRSRPPRLPRPRPRPLFLPRP,-0.00337
24,RRIRKRPPRLPRPRPRPYDEPRP,-0.293
25,RRIRNRPPRLPRPRPRPFYYPRP,-0.877

row,Sequence,shrunken log2 fold change
1,RRIRNRPPRLPRPRPRPRSYPRP,-0.0727
2,RRIRNRPPRLPRPRPRPFITPRP,-0.783
3,RRIRIRPPRLPRPRPRPFEDPRP,-0.207
4,RRIRNRPPRLPRPRPRPTAGPRP,0.0608
5,RRIRKRPPRLPRPRPRPTIGPRP,0.0992
6,RRIRSRPPRLPRPRPRPCRGPRP,-0.128
7,RRIRPRPPRLPRPRPRPGSQPRP,0.127
8,RRIRARPPRLPRPRPRPIYMPRP,-0.11
9,RRIRFRPPRLPRPRPRPFDLPRP,-0.352
10,RRIRARPPRLPRPRPRPDVQPRP,0.474
11,RRIRERPPRLPRPRPRPIWWPRP,-0.0447
12,RRIRRRPPRLPRPRPRPPKFPRP,0.298
13,RRIRMRPPRLPRPRPRPIVSPRP,-0.0362
14,RRIRRRPPRLPRPRPRPNYHPRP,-0.223
15,RRIRFRPPRLPRPRPRPNTFPRP,-0.559
16,RRIRLRPPRLPRPRPRPQPGPRP,0.0607
17,RRIRFRPPRLPRPRPRPVFIPRP,-0.811
18,RRIRRRPPRLPRPRPRPARFPRP,0.709
19,RRIRKRPPRLPRPRPRPIKWPRP,0.00487
20,RRIRPRPPRLPRPRPRPWNNPRP,-0.561
21,RRIRYRPPRLPRPRPRPDCNPRP,-0.871
22,RRIRGRPPRLPRPRPRPSATPRP,3.09
23,RRIRDRPPRLPRPRPRPMIGPRP,0.266
24,RRIRVRPPRLPRPRPRPVQYPRP,-0.0224
25,RRIRGRPPRLPRPRPRPNVNPRP,0.371

row,Sequence,shrunken log2 fold change
1,RRIRMRPPRLPRPRPRPKPHPRP,1.19
2,RRIRGRPPRLPRPRPRPDPHPRP,0.507
3,RRIRQRPPRLPRPRPRPQTDPRP,0.00346
4,RRIRRRPPRLPRPRPRPIMHPRP,-0.094
5,RRIRYRPPRLPRPRPRPLYHPRP,-1.11
6,RRIRRRPPRLPRPRPRPSPKPRP,0.127
7,RRIRLRPPRLPRPRPRPNPSPRP,0.104
8,RRIRCRPPRLPRPRPRPWQGPRP,-0.0944
9,RRIRTRPPRLPRPRPRPSNWPRP,-0.281
10,RRIRCRPPRLPRPRPRPCLRPRP,-0.229
11,RRIRARPPRLPRPRPRPAHMPRP,-0.114
12,RRIRIRPPRLPRPRPRPHMGPRP,-1.08
13,RRIRHRPPRLPRPRPRPTNKPRP,-0.557
14,RRIRKRPPRLPRPRPRPTDQPRP,0.536
15,RRIRNRPPRLPRPRPRPRQCPRP,0.0196
16,RRIRMRPPRLPRPRPRPDYFPRP,-0.121
17,RRIRLRPPRLPRPRPRPYARPRP,-0.44
18,RRIRVRPPRLPRPRPRPDDPPRP,0.359
19,RRIRTRPPRLPRPRPRPLFAPRP,0.228
20,RRIRGRPPRLPRPRPRPFAVPRP,0.396
21,RRIRNRPPRLPRPRPRPNTVPRP,-0.409
22,RRIRDRPPRLPRPRPRPIHNPRP,-0.06
23,RRIRKRPPRLPRPRPRPVCAPRP,0.904
24,RRIRVRPPRLPRPRPRPSDPPRP,-0.179
25,RRIRTRPPRLPRPRPRPRDWPRP,0.483

row,Sequence,shrunken log2 fold change
1,RRIRKRPPRLPRPRPRPSTMPRP,-0.145
2,RRIRHRPPRLPRPRPRPQFWPRP,0.115
3,RRIRCRPPRLPRPRPRPQCAPRP,0.166
4,RRIRARPPRLPRPRPRPKEVPRP,-0.0076
5,RRIRCRPPRLPRPRPRPVNCPRP,-0.0215
6,RRIRFRPPRLPRPRPRPNLTPRP,-0.347
7,RRIRTRPPRLPRPRPRPKRLPRP,0.2
8,RRIRIRPPRLPRPRPRPWCMPRP,-0.693
9,RRIRFRPPRLPRPRPRPSHCPRP,-0.28
10,RRIRARPPRLPRPRPRPLFLPRP,0.0297
11,RRIRWRPPRLPRPRPRPTNIPRP,-0.509
12,RRIRWRPPRLPRPRPRPCDRPRP,-0.0349
13,RRIRVRPPRLPRPRPRPKIHPRP,-0.205
14,RRIRVRPPRLPRPRPRPKAHPRP,-0.00647
15,RRIRGRPPRLPRPRPRPTWAPRP,0.987
16,RRIRIRPPRLPRPRPRPLHTPRP,-0.456
17,RRIRERPPRLPRPRPRPAAFPRP,-0.0909
18,RRIRVRPPRLPRPRPRPLKNPRP,-0.0569
19,RRIRCRPPRLPRPRPRPDQGPRP,-0.143
20,RRIRARPPRLPRPRPRPPFMPRP,0.376
21,RRIRDRPPRLPRPRPRPCPDPRP,-0.312
22,RRIRHRPPRLPRPRPRPNPFPRP,-0.67
23,RRIRWRPPRLPRPRPRPHQEPRP,0.0101
24,RRIRCRPPRLPRPRPRPDEAPRP,0.262
25,RRIRGRPPRLPRPRPRPMSNPRP,0.473

row,Sequence,shrunken log2 fold change
1,RRIRERPPRLPRPRPRPTMAPRP,0.00526
2,RRIRQRPPRLPRPRPRPGCCPRP,0.202
3,RRIRNRPPRLPRPRPRPQFWPRP,0.0339
4,RRIRMRPPRLPRPRPRPCPMPRP,-0.0993
5,RRIRPRPPRLPRPRPRPCAFPRP,-0.148
6,RRIRMRPPRLPRPRPRPTMWPRP,0.274
7,RRIRYRPPRLPRPRPRPTSRPRP,-0.0257
8,RRIRKRPPRLPRPRPRPQADPRP,0.0626
9,RRIRERPPRLPRPRPRPLKGPRP,0.176
10,RRIRTRPPRLPRPRPRPMQRPRP,-0.0122
11,RRIRFRPPRLPRPRPRPAFFPRP,0.0784
12,RRIRVRPPRLPRPRPRPIYHPRP,-0.461
13,RRIRCRPPRLPRPRPRPSQWPRP,-0.337
14,RRIRFRPPRLPRPRPRPPLGPRP,1.33
15,RRIRLRPPRLPRPRPRPFLNPRP,-0.172
16,RRIRSRPPRLPRPRPRPYLSPRP,-0.062
17,RRIRGRPPRLPRPRPRPGCEPRP,2.03
18,RRIRDRPPRLPRPRPRPTVLPRP,0.306
19,RRIRQRPPRLPRPRPRPITDPRP,0.00271
20,RRIRTRPPRLPRPRPRPIWAPRP,-0.085
21,RRIRQRPPRLPRPRPRPDLEPRP,-0.0293
22,RRIRDRPPRLPRPRPRPKVVPRP,-0.01
23,RRIRTRPPRLPRPRPRPRWYPRP,-0.288
24,RRIRTRPPRLPRPRPRPLAEPRP,0.107
25,RRIRGRPPRLPRPRPRPLEFPRP,0.319

row,Sequence,shrunken log2 fold change
1,RRIRNRPPRLPRPRPRPFLQPRP,-0.206
2,RRIRQRPPRLPRPRPRPQMTPRP,-0.106
3,RRIRARPPRLPRPRPRPSTDPRP,1.08
4,RRIRCRPPRLPRPRPRPVVFPRP,-0.123
5,RRIRRRPPRLPRPRPRPFWEPRP,-0.0438
6,RRIRYRPPRLPRPRPRPSYEPRP,-0.629
7,RRIRLRPPRLPRPRPRPTQEPRP,0.0081
8,RRIRKRPPRLPRPRPRPPVDPRP,0.0616
9,RRIRCRPPRLPRPRPRPPCAPRP,0.354
10,RRIRTRPPRLPRPRPRPYMMPRP,0.0264
11,RRIRVRPPRLPRPRPRPQQNPRP,-0.112
12,RRIRWRPPRLPRPRPRPTEWPRP,0.327
13,RRIRNRPPRLPRPRPRPSCYPRP,-0.181
14,RRIRFRPPRLPRPRPRPPIGPRP,-0.229
15,RRIRDRPPRLPRPRPRPQHVPRP,0.0427
16,RRIRGRPPRLPRPRPRPFVMPRP,-0.0182
17,RRIRSRPPRLPRPRPRPGAWPRP,0.342
18,RRIRERPPRLPRPRPRPTDCPRP,-0.399
19,RRIRTRPPRLPRPRPRPTNTPRP,-0.536
20,RRIRLRPPRLPRPRPRPKLVPRP,-0.0181
21,RRIRERPPRLPRPRPRPASQPRP,-0.0177
22,RRIRVRPPRLPRPRPRPANSPRP,-0.117
23,RRIRLRPPRLPRPRPRPHWVPRP,-0.189
24,RRIRGRPPRLPRPRPRPLFGPRP,0.584
25,RRIRYRPPRLPRPRPRPTMWPRP,0.0172
